This assay has as its target biotinylated His-Avi-TEAD (194-411) (UniProt P28347). The assay is described as follows: SSM screen, enrichment after two rounds of sorting.
For GSPDEYIERAKECCKKGDIMCCLRYFEESGDPNVMLICLFCP (designed binder) [Q18M variant of SEQ ID NO: 1], the enrichment score was -9.52. Molecule GSPDEYIERAKECCKTGDIQCCLRYFEESGDPNVMLICLFCP (designed binder) [K14T variant of SEQ ID NO: 1] registered an enrichment score of 3.18.

Molecule GSPDEYIERAKECCKKGDISCCLRYFEESGDPNVMLICLFCP (designed binder) [Q18S variant of SEQ ID NO: 1] gave an enrichment score of -1.25. For the molecule GSPDEYIERAKECCVKGDIQCCLRYFEESGDPNVMLICLFCP (designed binder) [K13V variant of SEQ ID NO: 1], the enrichment score is -1.65.

GSPDEYIERAKECCFKGDIQCCLRYFEESGDPNVMLICLFCP (designed binder) [K13F variant of SEQ ID NO: 1]: the enrichment score was -1.14. With GSPDEYIERAKECCKQGDIQCCLRYFEESGDPNVMLICLFCP (designed binder) [K14Q variant of SEQ ID NO: 1], the enrichment score came out at 0.17. On to GSPDEYIERAKECCKKSDIQCCLRYFEESGDPNVMLICLFCP (designed binder) [G15S variant of SEQ ID NO: 1], for which the enrichment score stood at 2.37. Take GSPDEYIERAKECCKKGFIQCCLRYFEESGDPNVMLICLFCP (designed binder) [D16F variant of SEQ ID NO: 1]: the enrichment score was -1.86. On to GSPDEYIERAKECCKKGDIICCLRYFEESGDPNVMLICLFCP (designed binder) [Q18I variant of SEQ ID NO: 1], for which the enrichment score is -11.4. With GSPDEYIERAKECCKKGDLQCCLRYFEESGDPNVMLICLFCP (designed binder) [I17L variant of SEQ ID NO: 1] the figure was 1.28. For GSPDEYIERAKECCKVGDIQCCLRYFEESGDPNVMLICLFCP (designed binder) [K14V variant of SEQ ID NO: 1], the enrichment score turned out to be 0.08. For GSPDEYIERAKECCKKGDVQCCLRYFEESGDPNVMLICLFCP (designed binder) [I17V variant of SEQ ID NO: 1], the enrichment score is 4.17.

Consider GSPDEYIERAKECCKKGDILCCLRYFEESGDPNVMLICLFCP (designed binder) [Q18L variant of SEQ ID NO: 1], for which the enrichment score is -4.91. With GSPDEYIERAKECCKKWDIQCCLRYFEESGDPNVMLICLFCP (designed binder) [G15W variant of SEQ ID NO: 1] the figure was -4.75; with GSPDEYIERAKECCKKVDIQCCLRYFEESGDPNVMLICLFCP (designed binder) [G15V variant of SEQ ID NO: 1], 0.99; with GSPDEYIERAKECCKKGDITCCLRYFEESGDPNVMLICLFCP (designed binder) [Q18T variant of SEQ ID NO: 1], -2.28. For the molecule GSPDEYIERAKECCKKGSIQCCLRYFEESGDPNVMLICLFCP (designed binder) [D16S variant of SEQ ID NO: 1], the enrichment score was -2.71. Regarding GSPDEYIERAKECCKKGDNQCCLRYFEESGDPNVMLICLFCP (designed binder) [I17N variant of SEQ ID NO: 1], the enrichment score amounted to 0.47. Next, GSPDEYIERAKECCKKGDAQCCLRYFEESGDPNVMLICLFCP (designed binder) [I17A variant of SEQ ID NO: 1]: -4.36; GSPDEYIERAKECCKFGDIQCCLRYFEESGDPNVMLICLFCP (designed binder) [K14F variant of SEQ ID NO: 1]: -0.5; GSPDEYIERAKECCKAGDIQCCLRYFEESGDPNVMLICLFCP (designed binder) [K14A variant of SEQ ID NO: 1]: -0.22. The molecule GSPDEYIERAKECCIKGDIQCCLRYFEESGDPNVMLICLFCP (designed binder) [K13I variant of SEQ ID NO: 1] gave an enrichment score of -1.54.

With GSPDEYIERAKECCKKQDIQCCLRYFEESGDPNVMLICLFCP (designed binder) [G15Q variant of SEQ ID NO: 1], the enrichment score is 2.5. GSPDEYIERAKECCKKGDINCCLRYFEESGDPNVMLICLFCP (designed binder) [Q18N variant of SEQ ID NO: 1] gave an enrichment score of -0.16. In the case of GSPDEYIERAKECCAKGDIQCCLRYFEESGDPNVMLICLFCP (designed binder) [K13A variant of SEQ ID NO: 1], the enrichment score is 1.94.

GSPDEYIERAKECCKKGDIACCLRYFEESGDPNVMLICLFCP (designed binder) [Q18A variant of SEQ ID NO: 1] had an enrichment score of -1.53. With GSPDEYIERAKECCKKGDIVCCLRYFEESGDPNVMLICLFCP (designed binder) [Q18V variant of SEQ ID NO: 1] the figure was -0.77; with GSPDEYIERAKECCKKGLIQCCLRYFEESGDPNVMLICLFCP (designed binder) [D16L variant of SEQ ID NO: 1], -8.99; with GSPDEYIERAKECCKKIDIQCCLRYFEESGDPNVMLICLFCP (designed binder) [G15I variant of SEQ ID NO: 1], -1.96. Molecule GSPDEYIERAKECCKKGDTQCCLRYFEESGDPNVMLICLFCP (designed binder) [I17T variant of SEQ ID NO: 1] displayed an enrichment score of 2.21. GSPDEYIERAKECCKKGVIQCCLRYFEESGDPNVMLICLFCP (designed binder) [D16V variant of SEQ ID NO: 1] registered an enrichment score of -7.81.

As to GSPDEYIERAKECCKKGDIFCCLRYFEESGDPNVMLICLFCP (designed binder) [Q18F variant of SEQ ID NO: 1], the enrichment score is -4.21.

In turn, GSPDEYIERAKECCQKGDIQCCLRYFEESGDPNVMLICLFCP (designed binder) [K13Q variant of SEQ ID NO: 1] registered an enrichment score of 2.23. Next, GSPDEYIERAKECCKKGAIQCCLRYFEESGDPNVMLICLFCP (designed binder) [D16A variant of SEQ ID NO: 1]: -5.23; GSPDEYIERAKECCKKTDIQCCLRYFEESGDPNVMLICLFCP (designed binder) [G15T variant of SEQ ID NO: 1]: 2.65. Turning to GSPDEYIERAKECCNKGDIQCCLRYFEESGDPNVMLICLFCP (designed binder) [K13N variant of SEQ ID NO: 1], the enrichment score amounted to 0.6. As to GSPDEYIERAKECCTKGDIQCCLRYFEESGDPNVMLICLFCP (designed binder) [K13T variant of SEQ ID NO: 1], the enrichment score was 1.49. The molecule GSPDEYIERAKECCKKGWIQCCLRYFEESGDPNVMLICLFCP (designed binder) [D16W variant of SEQ ID NO: 1] yielded an enrichment score of -2.3. Molecule GSPDEYIERAKECCKKNDIQCCLRYFEESGDPNVMLICLFCP (designed binder) [G15N variant of SEQ ID NO: 1] returned an enrichment score of 3.06. GSPDEYIERAKECCKKGIIQCCLRYFEESGDPNVMLICLFCP (designed binder) [D16I variant of SEQ ID NO: 1] registered an enrichment score of -6.42. In turn, GSPDEYIERAKECCKKGQIQCCLRYFEESGDPNVMLICLFCP (designed binder) [D16Q variant of SEQ ID NO: 1] registered an enrichment score of -3.47.

With GSPDEYIERAKECCLKGDIQCCLRYFEESGDPNVMLICLFCP (designed binder) [K13L variant of SEQ ID NO: 1], the enrichment score is -1.37.

For the molecule GSPDEYIERAKECCKIGDIQCCLRYFEESGDPNVMLICLFCP (designed binder) [K14I variant of SEQ ID NO: 1], the enrichment score is -0.99. With GSPDEYIERAKECCKKFDIQCCLRYFEESGDPNVMLICLFCP (designed binder) [G15F variant of SEQ ID NO: 1] the figure was -1.98; with GSPDEYIERAKECCKLGDIQCCLRYFEESGDPNVMLICLFCP (designed binder) [K14L variant of SEQ ID NO: 1], -0.89; with GSPDEYIERAKECCKWGDIQCCLRYFEESGDPNVMLICLFCP (designed binder) [K14W variant of SEQ ID NO: 1], -2.64. With GSPDEYIERAKECCKKADIQCCLRYFEESGDPNVMLICLFCP (designed binder) [G15A variant of SEQ ID NO: 1] the figure was 1.89; with GSPDEYIERAKECCKKGTIQCCLRYFEESGDPNVMLICLFCP (designed binder) [D16T variant of SEQ ID NO: 1], -10; with GSPDEYIERAKECCKKLDIQCCLRYFEESGDPNVMLICLFCP (designed binder) [G15L variant of SEQ ID NO: 1], -0.59.

Regarding GSPDEYIERAKECCKSGDIQCCLRYFEESGDPNVMLICLFCP (designed binder) [K14S variant of SEQ ID NO: 1], the enrichment score turned out to be 1.61.

Molecule GSPDEYIERAKECCSKGDIQCCLRYFEESGDPNVMLICLFCP (designed binder) [K13S variant of SEQ ID NO: 1] came in with an enrichment score of 1.43. Turning to GSPDEYIERAKECCKKGDSQCCLRYFEESGDPNVMLICLFCP (designed binder) [I17S variant of SEQ ID NO: 1], the enrichment score is -2.1.

GSPDEYIERAKECCKKGDFQCCLRYFEESGDPNVMLICLFCP (designed binder) [I17F variant of SEQ ID NO: 1] came in with an enrichment score of -3.5. With GSPDEYIERAKECCKKGNIQCCLRYFEESGDPNVMLICLFCP (designed binder) [D16N variant of SEQ ID NO: 1] the figure was -2.7. GSPDEYIERAKECCKKGDQQCCLRYFEESGDPNVMLICLFCP (designed binder) [I17Q variant of SEQ ID NO: 1] registered an enrichment score of -3.1.

In the case of GSPDEYIERAKECCWKGDIQCCLRYFEESGDPNVMLICLFCP (designed binder) [K13W variant of SEQ ID NO: 1], the enrichment score is -2.99. For GSPDEYIERAKECCKNGDIQCCLRYFEESGDPNVMLICLFCP (designed binder) [K14N variant of SEQ ID NO: 1], the enrichment score amounted to 1.51.

These data come from patent US20230151068A1.
